Bridges are numbered along the chain shown (N, C = ends). [ ]: non-standard residue; d: D form. dTic = O=C(O)[C@H]1Cc2ccccc2CN1; hSer = N[C@@H](CCO)C(=O)O; Orn = NCCC[C@H](N)C(=O)O; Dab = NCC[C@H](N)C(=O)O
B1: cyclo(-Tyr-His-Orn-Cys-His-Gly-^DPro-Trp-Thr-Ile-Cys-Tyr-Glu-Lys-^DPro-Pro-) (peptide)
peptide: cyclo(YH[Orn]CHG[dP]WTICYEK[dP]P)
modifications: disulfide 4-11
B2: cyclo(-Tyr-His-Lys-Cys-His-Gly-^DPro-Trp-Thr-Ile-Cys-Tyr-Glu-Glu-^DPro-Pro-) (peptide)
peptide: cyclo(YHKCHG[dP]WTICYEE[dP]P)
modifications: disulfide 4-11
SMILES: CC[C@H](C)[C@@H]1NC(=O)[C@H]([C@@H](C)O)NC(=O)[C@H](Cc2c[nH]c3ccccc23)NC(=O)[C@H]2CCCN2C(=O)CNC(=O)[C@H](Cc2c[nH]cn2)NC(=O)[C@@H]2CSSC[C@H](NC1=O)C(=O)N[C@@H](Cc1ccc(O)cc1)C(=O)N[C@@H](CCC(=O)O)C(=O)N[C@@H](CCC(=O)O)C(=O)N1CCC[C@@H]1C(=O)N1CCC[C@H]1C(=O)N[C@@H](Cc1ccc(O)cc1)C(=O)N[C@@H](Cc1c[nH]cn1)C(=O)N[C@@H](CCCCN)C(=O)N2
B3: cyclo(-Tyr-His-Lys-Cys-His-Gly-^DPro-Trp-Thr-Ile-Cys-Tyr-Glu-His-^DPro-Pro-) (peptide)
peptide: cyclo(YHKCHG[dP]WTICYEH[dP]P)
modifications: disulfide 4-11
SMILES: CC[C@H](C)[C@@H]1NC(=O)[C@H]([C@@H](C)O)NC(=O)[C@H](Cc2c[nH]c3ccccc23)NC(=O)[C@H]2CCCN2C(=O)CNC(=O)[C@H](Cc2c[nH]cn2)NC(=O)[C@@H]2CSSC[C@H](NC1=O)C(=O)N[C@@H](Cc1ccc(O)cc1)C(=O)N[C@@H](CCC(=O)O)C(=O)N[C@@H](Cc1c[nH]cn1)C(=O)N1CCC[C@@H]1C(=O)N1CCC[C@H]1C(=O)N[C@@H](Cc1ccc(O)cc1)C(=O)N[C@@H](Cc1c[nH]cn1)C(=O)N[C@@H](CCCCN)C(=O)N2
B4: cyclo(-Gly-His-Lys-Cys-His-Gly-^DPro-Trp-Thr-Ile-Cys-Tyr-Glu-Lys-^DPro-Pro-) (peptide)
peptide: cyclo(GHKCHG[dP]WTICYEK[dP]P)
modifications: disulfide 4-11
SMILES: CC[C@H](C)[C@@H]1NC(=O)[C@H]([C@@H](C)O)NC(=O)[C@H](Cc2c[nH]c3ccccc23)NC(=O)[C@H]2CCCN2C(=O)CNC(=O)[C@H](Cc2c[nH]cn2)NC(=O)[C@@H]2CSSC[C@H](NC1=O)C(=O)N[C@@H](Cc1ccc(O)cc1)C(=O)N[C@@H](CCC(=O)O)C(=O)N[C@@H](CCCCN)C(=O)N1CCC[C@@H]1C(=O)N1CCC[C@H]1C(=O)NCC(=O)N[C@@H](Cc1c[nH]cn1)C(=O)N[C@@H](CCCCN)C(=O)N2
B5: cyclo(-Tyr-His-Lys-Cys-His-Gly-^DPro-Trp-Thr-Ile-Cys-Tyr-Glu-Gly-^DPro-Pro-) (peptide)
peptide: cyclo(YHKCHG[dP]WTICYEG[dP]P)
modifications: disulfide 4-11
SMILES: CC[C@H](C)[C@@H]1NC(=O)[C@H]([C@@H](C)O)NC(=O)[C@H](Cc2c[nH]c3ccccc23)NC(=O)[C@H]2CCCN2C(=O)CNC(=O)[C@H](Cc2c[nH]cn2)NC(=O)[C@@H]2CSSC[C@H](NC1=O)C(=O)N[C@@H](Cc1ccc(O)cc1)C(=O)N[C@@H](CCC(=O)O)C(=O)NCC(=O)N1CCC[C@@H]1C(=O)N1CCC[C@H]1C(=O)N[C@@H](Cc1ccc(O)cc1)C(=O)N[C@@H](Cc1c[nH]cn1)C(=O)N[C@@H](CCCCN)C(=O)N2
B6: cyclo(-Tyr-His-Lys-Cys-His-Gly-^DPro-Trp-Thr-Ile-Cys-Tyr-Trp-Lys-^DPro-Pro-) (peptide)
peptide: cyclo(YHKCHG[dP]WTICYWK[dP]P)
modifications: disulfide 4-11
SMILES: CC[C@H](C)[C@@H]1NC(=O)[C@H]([C@@H](C)O)NC(=O)[C@H](Cc2c[nH]c3ccccc23)NC(=O)[C@H]2CCCN2C(=O)CNC(=O)[C@H](Cc2c[nH]cn2)NC(=O)[C@@H]2CSSC[C@H](NC1=O)C(=O)N[C@@H](Cc1ccc(O)cc1)C(=O)N[C@@H](Cc1c[nH]c3ccccc13)C(=O)N[C@@H](CCCCN)C(=O)N1CCC[C@@H]1C(=O)N1CCC[C@H]1C(=O)N[C@@H](Cc1ccc(O)cc1)C(=O)N[C@@H](Cc1c[nH]cn1)C(=O)N[C@@H](CCCCN)C(=O)N2
B7: cyclo(-Tyr-His-Lys-Cys-His-Gly-^DPro-Trp-Thr-Ile-Cys-Tyr-Glu-Dab-^DPro-Pro-) (peptide)
peptide: cyclo(YHKCHG[dP]WTICYE[Dab][dP]P)
modifications: disulfide 4-11
SMILES: CC[C@H](C)[C@@H]1NC(=O)[C@H]([C@@H](C)O)NC(=O)[C@H](Cc2c[nH]c3ccccc23)NC(=O)[C@H]2CCCN2C(=O)CNC(=O)[C@H](Cc2c[nH]cn2)NC(=O)[C@@H]2CSSC[C@H](NC1=O)C(=O)N[C@@H](Cc1ccc(O)cc1)C(=O)N[C@@H](CCC(=O)O)C(=O)N[C@@H](CCN)C(=O)N1CCC[C@@H]1C(=O)N1CCC[C@H]1C(=O)N[C@@H](Cc1ccc(O)cc1)C(=O)N[C@@H](Cc1c[nH]cn1)C(=O)N[C@@H](CCCCN)C(=O)N2
B8: cyclo(-Tyr-His-Lys-Cys-His-Gly-^DPro-Trp-Thr-Ile-Cys-Tyr-Glu-Lys-^DPro-Pro-) (peptide)
peptide: cyclo(YHKCHG[dP]WTICYEK[dP]P)
modifications: disulfide 4-11
B9: cyclo(-Asp-His-Lys-Cys-His-Gly-^DPro-Trp-Thr-Ile-Cys-Tyr-Glu-Lys-^DPro-Pro-) (peptide)
peptide: cyclo(DHKCHG[dP]WTICYEK[dP]P)
modifications: disulfide 4-11
SMILES: CC[C@H](C)[C@@H]1NC(=O)[C@H]([C@@H](C)O)NC(=O)[C@H](Cc2c[nH]c3ccccc23)NC(=O)[C@H]2CCCN2C(=O)CNC(=O)[C@H](Cc2c[nH]cn2)NC(=O)[C@@H]2CSSC[C@H](NC1=O)C(=O)N[C@@H](Cc1ccc(O)cc1)C(=O)N[C@@H](CCC(=O)O)C(=O)N[C@@H](CCCCN)C(=O)N1CCC[C@@H]1C(=O)N1CCC[C@H]1C(=O)N[C@@H](CC(=O)O)C(=O)N[C@@H](Cc1c[nH]cn1)C(=O)N[C@@H](CCCCN)C(=O)N2
B10: cyclo(-Tyr-His-Lys-Cys-His-Gly-^DPro-Trp-Thr-Ile-Cys-Tyr-Asp-Lys-^DPro-Pro-) (peptide)
peptide: cyclo(YHKCHG[dP]WTICYDK[dP]P)
modifications: disulfide 4-11
SMILES: CC[C@H](C)[C@@H]1NC(=O)[C@H]([C@@H](C)O)NC(=O)[C@H](Cc2c[nH]c3ccccc23)NC(=O)[C@H]2CCCN2C(=O)CNC(=O)[C@H](Cc2c[nH]cn2)NC(=O)[C@@H]2CSSC[C@H](NC1=O)C(=O)N[C@@H](Cc1ccc(O)cc1)C(=O)N[C@@H](CC(=O)O)C(=O)N[C@@H](CCCCN)C(=O)N1CCC[C@@H]1C(=O)N1CCC[C@H]1C(=O)N[C@@H](Cc1ccc(O)cc1)C(=O)N[C@@H](Cc1c[nH]cn1)C(=O)N[C@@H](CCCCN)C(=O)N2
B11: cyclo(-Tyr-His-Lys-Cys-His-Gly-^DPro-Trp-Thr-Ile-Cys-Tyr-Glu-Thr-^DPro-Pro-) (peptide)
peptide: cyclo(YHKCHG[dP]WTICYET[dP]P)
modifications: disulfide 4-11
SMILES: CC[C@H](C)[C@@H]1NC(=O)[C@H]([C@@H](C)O)NC(=O)[C@H](Cc2c[nH]c3ccccc23)NC(=O)[C@H]2CCCN2C(=O)CNC(=O)[C@H](Cc2c[nH]cn2)NC(=O)[C@@H]2CSSC[C@H](NC1=O)C(=O)N[C@@H](Cc1ccc(O)cc1)C(=O)N[C@@H](CCC(=O)O)C(=O)N[C@@H]([C@@H](C)O)C(=O)N1CCC[C@@H]1C(=O)N1CCC[C@H]1C(=O)N[C@@H](Cc1ccc(O)cc1)C(=O)N[C@@H](Cc1c[nH]cn1)C(=O)N[C@@H](CCCCN)C(=O)N2
B12: cyclo(-Dab-His-Lys-Cys-His-Gly-^DPro-Trp-Thr-Ile-Cys-Tyr-Glu-Lys-^DPro-Pro-) (peptide)
peptide: cyclo([Dab]HKCHG[dP]WTICYEK[dP]P)
modifications: disulfide 4-11
SMILES: CC[C@H](C)[C@@H]1NC(=O)[C@H]([C@@H](C)O)NC(=O)[C@H](Cc2c[nH]c3ccccc23)NC(=O)[C@H]2CCCN2C(=O)CNC(=O)[C@H](Cc2c[nH]cn2)NC(=O)[C@@H]2CSSC[C@H](NC1=O)C(=O)N[C@@H](Cc1ccc(O)cc1)C(=O)N[C@@H](CCC(=O)O)C(=O)N[C@@H](CCCCN)C(=O)N1CCC[C@@H]1C(=O)N1CCC[C@H]1C(=O)N[C@@H](CCN)C(=O)N[C@@H](Cc1c[nH]cn1)C(=O)N[C@@H](CCCCN)C(=O)N2
B13: cyclo(-Tyr-His-Lys-Cys-His-Gly-^DPro-Trp-Thr-Ile-Cys-Tyr-Glu-Hse-^DPro-Pro-) (peptide)
peptide: cyclo(YHKCHG[dP]WTICYE[hSer][dP]P)
modifications: disulfide 4-11
SMILES: CC[C@H](C)[C@@H]1NC(=O)[C@H]([C@@H](C)O)NC(=O)[C@H](Cc2c[nH]c3ccccc23)NC(=O)[C@H]2CCCN2C(=O)CNC(=O)[C@H](Cc2c[nH]cn2)NC(=O)[C@@H]2CSSC[C@H](NC1=O)C(=O)N[C@@H](Cc1ccc(O)cc1)C(=O)N[C@@H](CCC(=O)O)C(=O)N[C@@H](CCO)C(=O)N1CCC[C@@H]1C(=O)N1CCC[C@H]1C(=O)N[C@@H](Cc1ccc(O)cc1)C(=O)N[C@@H](Cc1c[nH]cn1)C(=O)N[C@@H](CCCCN)C(=O)N2
B14: cyclo(-Tyr-His-Lys-Cys-His-Gly-^DPro-Trp-Thr-Ile-Cys-Tyr-Glu-Lys-^DAla-Glu-) (peptide)
peptide: cyclo(YHKCHG[dP]WTICYEK[dA]E)
modifications: disulfide 4-11
SMILES: CC[C@H](C)[C@@H]1NC(=O)[C@H]([C@@H](C)O)NC(=O)[C@H](Cc2c[nH]c3ccccc23)NC(=O)[C@H]2CCCN2C(=O)CNC(=O)[C@H](Cc2c[nH]cn2)NC(=O)[C@@H]2CSSC[C@H](NC1=O)C(=O)N[C@@H](Cc1ccc(O)cc1)C(=O)N[C@@H](CCC(=O)O)C(=O)N[C@@H](CCCCN)C(=O)N[C@H](C)C(=O)N[C@@H](CCC(=O)O)C(=O)N[C@@H](Cc1ccc(O)cc1)C(=O)N[C@@H](Cc1c[nH]cn1)C(=O)N[C@@H](CCCCN)C(=O)N2
B15: cyclo(-Tyr-His-Lys-Cys-His-Gly-^DTic-Trp-Thr-Ile-Cys-Tyr-Glu-Lys-^DPro-Pro-) (peptide)
peptide: cyclo(YHKCHG[dTic]WTICYEK[dP]P)
modifications: disulfide 4-11
SMILES: CC[C@H](C)[C@@H]1NC(=O)[C@H]([C@@H](C)O)NC(=O)[C@H](Cc2c[nH]c3ccccc23)NC(=O)[C@H]2Cc3ccccc3CN2C(=O)CNC(=O)[C@H](Cc2c[nH]cn2)NC(=O)[C@@H]2CSSC[C@H](NC1=O)C(=O)N[C@@H](Cc1ccc(O)cc1)C(=O)N[C@@H](CCC(=O)O)C(=O)N[C@@H](CCCCN)C(=O)N1CCC[C@@H]1C(=O)N1CCC[C@H]1C(=O)N[C@@H](Cc1ccc(O)cc1)C(=O)N[C@@H](Cc1c[nH]cn1)C(=O)N[C@@H](CCCCN)C(=O)N2

What follows are binders tested against T1, Formyl-Peptide Receptor 1 (UniProt P21462 1-350, limits assumed) (assay: cell-based or functional assay).
T1 sequence (looked up): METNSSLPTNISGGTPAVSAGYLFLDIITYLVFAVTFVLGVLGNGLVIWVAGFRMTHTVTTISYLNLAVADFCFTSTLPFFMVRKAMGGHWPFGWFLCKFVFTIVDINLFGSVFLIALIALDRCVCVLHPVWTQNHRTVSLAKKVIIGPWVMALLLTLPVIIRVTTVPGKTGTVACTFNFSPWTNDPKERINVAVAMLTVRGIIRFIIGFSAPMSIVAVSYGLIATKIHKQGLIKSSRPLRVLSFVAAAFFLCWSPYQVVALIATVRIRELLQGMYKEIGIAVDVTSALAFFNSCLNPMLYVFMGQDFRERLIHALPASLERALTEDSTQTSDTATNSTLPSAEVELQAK
B1 was tested, and the “β-Arrestin IC50” value was 313 nM.
B2 was tested, and the “β-Arrestin IC50” value was 57 nM.
B3 was tested, and the “β-Arrestin IC50” value was 73 nM.
In the case of B4, the “β-Arrestin IC50” value is reported as 111 nM.
B5 was tested, and the “β-Arrestin IC50” value was 250 nM.
B6 was tested, and the “β-Arrestin IC50” value was 15 nM.
In the case of B7, the “β-Arrestin IC50” value is reported as 82 nM.
In the case of B8, the “β-Arrestin IC50” value is reported as 44 nM.
With B9 the “β-Arrestin IC50” value was 177 nM.
B10 was tested, and the “β-Arrestin IC50” value was 37 nM.
With B11 the “β-Arrestin IC50” value was 197 nM.
With B12 the “β-Arrestin IC50” value was 194 nM.
With B13 the “β-Arrestin IC50” value was 24 nM.
With B14 the “β-Arrestin IC50” value was 124 nM.
For B15, the “β-Arrestin IC50” value was 21 nM.

Source: US9957297B2, “Template-fixed peptidomimetics as inhibitors of FPR1” (POLYPHOR AG, priority 2011, dated 2018)
